Patent US20200362349, “APPLICATION OF APTAMER IN RECOGNITION AND BINDING OF ALKALINE PHOSPHATASE HETERODIMER OR TUMOR DETECTION” (INSTITUTE OF CHEMISTRY, CHINESE ACADEMY OF SCIENCES, published 2020)

Molecular target: alkaline phosphatase heterodimer IAP/PALP (ALPI/ALPP) on LoVo cells (Homo sapiens, UniProt P09923;P05187 P09923:20-503,P05187:23-506)
Assay: flow; apparent Kd on LoVo cells
Conditions: tags: endogenous, LoVo colon cancer cells, label: fluorescent dye
Procedure: A dish of colon cancer LoVo cells in the logarithmic growth phase was digested with 0.2% EDTA in PBS into a monodisperse cell suspension, and then divided into several aliquots. The aliquots were incubated with a fluorescent molecule-labeled aptamer probe solution for 30 min and washed twice with washing buffer, and then the fluorescence intensity on the cell surface was measured with BD FACSalibur flow cytometer. The average fluorescence intensity on the cell surface was plotted against the concentration of the aptamer, and the equilibrium dissociation constant Kd of the aptamer was calculated according to the following formula: Y=BₘₐₓX (Kd+X).

alkaline phosphatase heterodimer IAP/PALP (ALPI/ALPP) on LoVo cells, sequence (P09923 20-503, chain 1 of 2): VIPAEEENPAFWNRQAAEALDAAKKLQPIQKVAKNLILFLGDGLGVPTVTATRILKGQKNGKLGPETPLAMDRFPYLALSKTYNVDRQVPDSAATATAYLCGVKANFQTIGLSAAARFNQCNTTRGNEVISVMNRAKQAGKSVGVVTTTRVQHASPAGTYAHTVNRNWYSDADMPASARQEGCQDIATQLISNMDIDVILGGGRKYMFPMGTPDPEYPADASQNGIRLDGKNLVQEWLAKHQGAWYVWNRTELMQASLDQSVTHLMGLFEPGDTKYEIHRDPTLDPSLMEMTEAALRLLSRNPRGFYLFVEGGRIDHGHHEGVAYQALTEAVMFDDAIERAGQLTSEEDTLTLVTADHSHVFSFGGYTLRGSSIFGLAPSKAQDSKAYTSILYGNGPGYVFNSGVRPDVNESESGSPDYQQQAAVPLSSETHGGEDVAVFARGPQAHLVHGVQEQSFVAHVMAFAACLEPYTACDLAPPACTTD
alkaline phosphatase heterodimer IAP/PALP (ALPI/ALPP) on LoVo cells, sequence (P05187 23-506, chain 2 of 2): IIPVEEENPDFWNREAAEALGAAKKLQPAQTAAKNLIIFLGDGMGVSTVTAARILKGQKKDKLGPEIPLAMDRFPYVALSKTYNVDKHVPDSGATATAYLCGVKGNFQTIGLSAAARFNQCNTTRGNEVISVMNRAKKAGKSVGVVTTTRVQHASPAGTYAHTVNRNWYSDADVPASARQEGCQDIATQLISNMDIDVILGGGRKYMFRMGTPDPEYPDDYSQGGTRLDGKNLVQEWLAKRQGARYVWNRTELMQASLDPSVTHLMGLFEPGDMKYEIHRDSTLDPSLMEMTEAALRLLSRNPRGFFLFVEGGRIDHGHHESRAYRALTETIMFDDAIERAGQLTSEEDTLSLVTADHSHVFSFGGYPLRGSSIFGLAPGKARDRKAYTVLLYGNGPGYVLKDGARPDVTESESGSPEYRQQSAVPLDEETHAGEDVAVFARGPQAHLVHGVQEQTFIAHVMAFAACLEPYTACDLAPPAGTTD

For GATAACATAGGGGTCGGTGTGGGTGGTTATGATTGGCTGTTATC (ssDNA) [BG2 stem-replaced sequence 5], the Kd (stem-loop) was 3 nM.

B1: BG2 with primer sequences (ssDNA)
DNA: ACGCTCGGATGCCACTACAGTCAAGGAATAGGGGTCGGTGTGGGTGGTTATGATTGGCTTCCTTGTCTCATGGACGTGCTGGTGAC
B1 showed a Kd of 2.9 nM.

GGGGTCGGTGTGGGTGGTTATGATTGG (ssDNA) [BG2e] was tested, and the Kd was 9.3 nM.

TAAGAAATAGGGGTCGGTGTGGGTGGTTATGATTGGCTTTCTTA (ssDNA) [BG2 stem-replaced sequence 4] gave a Kd (stem-loop) of 5.7 nM.

In the case of CAAGGAATAGGGGTCGGTGTGGGTGGTTATGATTGGCTTCCTTG (ssDNA, PS at nucleotides 1-7 and the last 7 at the 3' end) [thio-modified BG2], the Kd (stem-loop) is reported as 3.5 nM.
